Results from article PMC3461476, “Functional expression of a penicillin acylase from the extreme thermophile Thermus thermophilus HB27 in Escherichia coli” (Microbial Cell Factories, 2012).

B1: TthPAC (Thermus thermophilus HB27; DEL247-255) (protein)
chain: LYLRASLPQGEGRIALEGLSAPVEVVRDGKGVVRIRAATLKDLFFAQGFVHAQERLWQMEFQRRVGQGRLSEILGEATLPQDRFLRTWGFYRAARAAYGKLYPEEKEAVDAYAAGVNAFLASGAPLPPEFRLLGFRPEPWTGPDVLVWAKMMSYDLSGNWEEELKRHRLLARGVSPKRLLELKPPYPEDAPTVLRAEDLKLPLKREEAPSALLRSNNWVVAGSRTETGKPFLANDPHLALQAPSLWFLMALEAPGLRAIGATLPGLPGVVIGRNERIAWGVTNVGADVEDLYLLEEVEGRGYRYKGRVVPYGVREEVIRVKGGREEVLKVRETVYGPVITDALEDPPKTPMALRWVSLDEEDHILMAFLGVNRAGNWEEFKKALLPYSAPSQNFVYADVEGNIGYIAPGKFPVRKEGHTGMVPVPGNGEWDWLGYRRPEEWPQAFNPARGYLVTANHKVTPKGFPYALTYDWAEPYRAERIEELLLAKEKLSLEDMKAIQQDQKSLLYRDFRPVLELLTPLSEGARAWRDRLLAWDGTMAPGSEEALVFALWYTELTRLPQREVGEAYWDEPRYLLKALKEGDKNCDQPETEYRESCLDYAALALERALDRKEALGARAWGEVHRARFPHAVLTHTPLKRLSDREVAFGGDRYTVNVGPFDPETLAMGHGPSYRQIVDLSDMEGSLFVHPMGQSGHFLSRHYADLLPLWQRGDYLPMRFGAPLGRTLLLEPLPSP
notes: One gene: precursor without its first 32 residues (membrane anchor), 2223 bp insert in pET28a, His6-tag (20 aa) at N-terminus of alpha subunit kept

Key:
Assay in all cases: initial rates of hydrolysis, fluorescamine detection of primary amine product
TthPAC = molecular target: T1, TthPAC (Thermus thermophilus, UniProt Q72G76, DEL247-255); format: biochemical; settings: 20 mM MES pH 5.5, 65 °C; kcat unit taken from kcat/Km in mM^-1.seg^-1
T1 construct: gene TT_C1972; One gene: precursor without its first 32 residues (membrane anchor), 2223 bp insert in pET28a, His6-tag (20 aa) at N-terminus of alpha subunit kept
Source text: (§1) initial rates of hydrolysis, fluorescamine detection of primary amine product on TthPAC

[1] = substrate: CC/C=C/CC(=O)N[C@@H]1C(=O)N2[C@@H]1SC(C)(C)[C@@H]2C(=O)O; format: biochemical, Thermus thermophilus; settings: 20 mM MES pH 5.5, 65 °C, kcat unit taken from kcat/Km in mM^-1.seg^-1
Source text: as §1

[2] = substrate: CCCCCCCC(=O)N[C@@H]1C(=O)N2[C@@H]1SC(C)(C)[C@@H]2C(=O)O; format: biochemical, Thermus thermophilus; settings: 20 mM MES pH 5.5, 65 °C, kcat unit taken from kcat/Km in mM^-1.seg^-1
Source text: as §1

[3] = substrate: CC1(C)S[C@@H]2[C@H](NC(=O)COc3ccccc3)C(=O)N2[C@H]1C(=O)O; format: biochemical, Thermus thermophilus; settings: 20 mM MES pH 5.5, 65 °C, kcat unit taken from kcat/Km in mM^-1.seg^-1
Source text: as §1

[4] = substrate: CCCCCC(=O)N[C@@H]1C(=O)N2[C@@H]1SC(C)(C)[C@@H]2C(=O)O; format: biochemical, Thermus thermophilus; settings: 20 mM MES pH 5.5, 65 °C, kcat unit taken from kcat/Km in mM^-1.seg^-1
Source text: as §1

Molecule	K m (mM) (TthPAC)	Km [1]	kcat [1]	kcat/Km [1]	Km [2]	kcat [2]	kcat/Km [2]	Km [3]	kcat [3]	kcat/Km [3]	Km [4]	kcat [4]	kcat/Km [4]
CC1(C)S[C@@H]2[C@H](NC(=O)Cc3ccccc3)C(=O)N2[C@H]1C(=O)O [Penicillin G]	~ Approx. 2.90 mM	–	–	–	–	–	–	–	–	–	–	–	–
B1	–	0.94 ± 0.18 mM	0.90 ± 0.03 s⁻¹	960 M⁻¹ s⁻¹	0.32 ± 0.05 mM	5.16 ± 0.13 s⁻¹	16100 M⁻¹ s⁻¹	0.74 ± 0.11 mM	0.57 ± 0.01 s⁻¹	770 M⁻¹ s⁻¹	0.98 ± 0.22 mM	1.46 ± 0.06 s⁻¹	1490 M⁻¹ s⁻¹
